Measured values reported in the DeepSol protein solubility set.

assay: soluble on expression in E. coli; label from the status in PepcDB or PDB records

Row | Sequence | soluble on expression in E. coli
1 | MAHHHHHHMDAKLEARMASVWEVVSSRHAVEATDLSLIQNVTRALAAMHERVEQQHAELTRWHRQNYKLMCTMVVHVNWREEDHRQLRDELVNVRQQLGRVAVRGDVPLLRPRNGG | not soluble
2 | LSNLPRVKHTLVPPPFAHAHEQVAASGPVINEFEMRIIEKEVQLDEDAYLQAMTFDGSIPGPLMIVHEGDYVELTLINPPENTMPHNIDFHAATGALGGGGLTLINPGEKVVLRFKATRAGAFVYHCAPGGPMIPWHVVSGMAGCIMVLPRDGLKDHEGKPVRYDTVYYIGESDHYIPKDEDGTYMRFSDPSEGYEDMVAVMDTLIPSHIVFNGAVGALTGEGALKAKVGDNVLFVHSQPNRDSRPALIGGHGDLVWETGKFHNAPERDLETWFIRGGTAGAALYKFLQPGVYAYVNHNLIEAVHKGATAHVLVEGEWDNDLMEQVVAPVGLTG | soluble
3 | MDFKQHIAIVPDYPKEGIVFKDITPLMNDGKAYKAATDAIVEYAKERDIDLVVGPEARGFIIGCPVSYALEVGFAPVRKLGKLPREVITVDYGKEYGKDVLTIHKDAIKPGQRVLITDDLLATGGTIEATIKLVEELGGVVAGIAFLVELTYLDGRKMLDGYDVLVLEKY | not soluble
4 | MGSDKIHHHHHHLPSARLSPRLSSPAGCRQTEWSQMPEAFIELRAITKRFSGVCALDALSLTINKGEIHCLAGENGSGKSTVIKVMAGVYQPDGGEILINGAPVRALTPIEAVRRNIQVIYQDFSLFGNLTVAENLALCGELQQKRKLADWKRIRAIGRQALDRLGVDIDLEVDVERLPTSSRQIVAIARALMSDAKLLIMDEPTTALTGREVDALFRIVKDIQAQGIAVLFVSHKMREMLEISERLTVIRNGRTVIDGPTSAFDESAVTRHMTGLDILSEGYAWAGSPEAVPRLEVRGLSLPGAFEDLSLAIRPGEIVGLSGLLGSGRTEFALSLFGMMPPAAGQVLVDGAQIAPRSVQDAIAEGITYVPEDRLTEGLFLTQSIDRNILATSYERLAPRGVIDRAKAAMQSAGMIKAMQIATPTGEKPVGQLSGGNAQRVVLARWLLTDAKVLILNGPTVGVDVGSKAEIHRKIRELASAHGLAVLMISDDVLELVQNTNRIVLMHRGRFVDDLPTATVSEQSINDLLKSFT | not soluble
5 | MTETSTVSIASSAIVCVEADIKGEVIIKEGCVVHPFVVFDATKGPIYVGENNIFEEYAVIRNNSDGQPMIIGDWNIFQVHSKSSAKYVGSRNVIGVHAVLEDGCSVSDDCSVGAKCTVFSHQNLEPSVSVYAATNLSRTTKTPNMTSPHQIEFLRKILPSYHHLYGKKKAVATASASAAQ | not soluble
6 | MSDVAIVKEGWLHKRGEYIKTWRPRYFLLKNDGTFIGYKERPQDVDQREAPLNNFSVAQCQLMKTERPRPNTFIIRCLQWTTVIERTFHVETPEEREEWTTAIQTVADGLKKQEEEEMDFRSG | soluble
7 | MSSSESPAGIAQIGVTGLAVMGSNIARNFARHGYTVAVHNRSVAKTDALLKEHSSDGKFVRSETIPEFLAALEKPRRVLIMVKAGEATDADAVINELADAMEPGDIIIDGGNALYTDTMRREKAMRERGLHFVGAGISGGEEGALNGPSIMPGGPAESYQSLGPLLEEISAHVDGVPCCTHIGPDGSGHFVKMVHNGIEYSDMQLIGEAYQLMRDGLGLTAPAIADVFTEWNNGDLDSYLVEITAEVLRQTDAKTGKPLVDVIVDRAEQKGTGRWTVKSALDLGVPVTGIAEAVFARALSGSVGQRSAASGLASGKLGEQPADPATFTEDVRQALYASKIVAYAQGFNQIQAGSAEFGWDITPGDLATIWRGGCIIRAKFLNHIKEAFDASPNLASLIVAPYFRGAVESAIDSWRRVVSTAAQLGIPTPGFSSALSYYDALRTARLPAALTQAQRDFFGAHTYGRIDEPGKFHTLWSSDRTEVPV | soluble
8 | MAKLSGSIDVPLPPEEAWMHASDLTRYREWLTIHKVWRSKLPEVLEKGTVVESYVEVKGMPNRIKWTIVRYKPPEGMTLNGDGVGGVKVKLIAKVAPKEHGSVVSFDVHLGGPALLGPIGMIVAAALRADIRESLQNFVTVFAG | soluble
9 | MGSDKIHHHHHHMLLEIRHVTQYHYERPVRESLMELWMQPQKTARQRLVSFELDLNPAAQVFSYADSFGNAVYHFDVPQPHDNLTIIARSAVETESPGERPDQLDMGEWDRLRSEFVRGECFDFLRPHGFVRTTEALQTFINEHDLDALKRRDPLTAVRSLSETIYGAFEYQPGVTDADSPIDLTLSAGRGVCQDFAHIMLAVCRGWGVPARYVSGYLFTDRDAGDRSDPDATHAWVEVFLPSLRWVGFDPTNNMMAGERHVAVAVGRDYADVTPSRGVYKGDAESQLAVGVSVRRARAALAEPEFLRMARPSFAGGRRRHDTALREELHQQQQQQQ | not soluble
10 | MGSDKIHHHHHHMFDVCLFKKMNILYATCFLDVSGVTRLNYDILARLAGKNNIYVCETASDGRLTSKLENHFRDSFGEPFKLFRYPLQDRYRRFLEYLDSNAIDLVFNTHSLWVYEHIAKLKKDRSNLKVVDSLHVLEPYCFRGGYPDISANRYVHPFIDKSIVISEHLLSYIKRSYSVDPGKFIIIRNGVDTTRFKKDSSLKGIFRNELGVPANFPLIGYIGRFSRQKRPDVFLDVAKHLLGKLGEVYFYMAGDGDLLDKSKKLADSLGISNRVSFVAPRDDIHIVLNSTDMLVLTSSYEGAPLTILEALATGVPVVASDVGAISEYVGTPYVVQRQGRGAEVDQFAEAILRGLNDNYPSIFDREIFSLDYVADSYARVFYDTAVRTSTTQEN | not soluble
11 | MSLEDCVISEWGPWTQCALPCNPSGSRQRSADPIRQPADEGRACPDAVEKEPCSLNKNCYHYDYNVTDWSTCQLSEKAVCGNGIKTRMLDCVRSDGKSVDLKYCEELGLEKNWPMNTSCTVECPVNCQLSDWSSWSQCSQTCGLTGKMIRKRTVTQPFQGDGRPCPSLMEQSKPCPVKPCYRWQYGQWSPCQVQEAQCGEGTRTRNISCVVSDGSAEDFSKVVDEEFCANTELEGHHHHHH | not soluble
12 | MRQALPLVTRQGDRIAIVSGLRTPFARQATAFHGIPAVDLGKMVVGELLARSEIPADAIEQLVFGQVVQMPEAPNIAREIVLGTGMNVHTDAYSVSRACATSFQAVANVAESLMAGTIRAGIAGGADSSSVLPIGVSKALARVLVDVNKARTTRQRLTLFSRLRLRDLLPVPPAVAEYSTGLRMGDTAEQMAKTYGITREQQDALAHRSHQRAAQAWAEGKLAEEVMTTYVPPYKNPFAEDNNIRGASTLADYAKLRPAFDRKHGSVTAANSTPLTDGAAAVILMTESRAKELGLRPLGYLRTYAFTAIDVWQDMLLGPAWSTPLALERAGLTMADLTLFDMHEAFAAQTLANLQLLGSERFAREVLGCAQATGEVDDAKFNVLGGSIAYGHPFAATGARMITQTLHELRRRGGGFGLVTACAAGGLGAAMVLEAE | not soluble
13 | MGSDKIHHHHHHMAATFKMVGVIRFSLLTPTFNADRYPDLEAAAAAIFAPDRMALRLHLFETLCLPSLVRQSDAAFHLVVATSDRLPAVILQHLQALLAPHDHMQLIQFAPENHYQILKEAYRAVPQQGESHRILFRLDDDDALDRHYVARCKRLAAGLVPLQTEAVSPIALAFNRGYYLIREEGQPPVVMDSCERAPLSAGTALVQPIAARGNPYRYNHRKFAQHYTLYSDISVPSFVRTVHGDNHSTPAMMGLTARQSDAEMDADLQRHFDLSLSDLKAI | not soluble
14 | MGSDKIHHHHHHMNAIASRQRPLLPVREAVVTRVRGSAPTAVGASMCLLEDGSLLGTVGGGRMEYQVCQVLCSPRSEAPPALLSFTLGTADDQCCGGQVEICVLDVPLFFSELYQPGASRLYQRDSAGRLRLVAGMTRLGREIGSFDALTVLLRANAPGMDVEERHFALPAPHHQPLWIFGAGHVGRAIASMAHKLDFASSVFDQRPEWADPAAFPPEVTLVDTWTWADLQAPATDAMVLIMTYSHAMDYALLEHFIGEPLAYLGVIASRSKAARFSHALSRAGHDIPDYLHMPMGLPGMGKKPPEIAISVLAELLQLRHKKTDF | not soluble
15 | MVVSDLKLRDMNEADRHAVGFVGFAAWRAGDAFDASYLDSYVVERVRGEFESFAKSPTGDVVVAEIDGVVVGWGACDAKPHHISDLWVDPNWQGKGIGKALIVHFLDRMRAEGLPLATIDTHARNRAAIGLYERCGFEIVWRGMEWSDIMKVELEKVKLEQKLSP | soluble
16 | AVVFLWRNEEKWPAEFVSENVVKFGYTVEDFISGNFLYGDIIHPEDRNRVKEELKTRIRRGEVDFNTGYRIFTKAGDVRWVNERAFIQRNREGEITHIQGLVLDIT | not soluble
17 | MKERLEHYSTSSIYSGFEVYLPLVLQTITDVIIAENIKSKKETGFKLYEHFTSRIKSEASMIEKCQRKQLPLTSKSALKIIKDSIGIRIICGFIDDIYRMVDLLKSIPGMSVNTEKDYILNAKPNGYRSYHLILELETHFPDILGEKKGCYFIEVQLRTIAQDSWASLEHQMKYKHQVANAEMITRELKRCADELASCDVTMQTIRQLIQETTEEE | not soluble
18 | MPLEASELKPTAGPLEASELKPTAGPLEASELKPTAGPLEASELKPTAGPLEASELKPTAGPLEASELKPTAGPLEASELKPTAGMKKNSYLLSCLAIAVSSACHAEVLTYPDPLGSSQSDFGGTGLLQMPNARIAPEGEFSVNYRDNDQYRFYSTSVALFPWLEGTIRYTDVRTRKYSQWEDFSGDQSYKDKSFDFKLRLWEEGYWLPQVAFGKRDIAGTGLFDGEYLVASKQAGPFDFTLGMAWGYAGNAGNITNPFCRVSDKYCHRAESHDAGDISFSDIFRGPASIFGGIEYQTPWNPLRLKLEYDGNNYQNDFAGKLPQASHFNVGAVYRAASWADLNLSYERGNTLMFGFTLRTNFNDLRPALRDTPKPAYQPAPESEGLQYTTVANQLTALKYNAGFDAPEIQLRDKTLYMSGQQYKYRDSREAVDRANRILVNNLPQGVEKISVTQKREHMAMVTTETDVASLRKQLAGTAPGQSEPLQQQRVEAEDLSAFGRGYRIREDRFSYSFNPTLSQSLGGPEDFYMFQLGLMSSARYWFTDHLLLDGGIFTNIYNNYDKFKSSLLPADSTLPRVRTHIRDYVRNDVYLNNLQANYFADLGNGFYGQVYGGYLETMYAGVGSELLYRPLDACWALGVDVNYVKQRDWDNMMRFTDYSTPTGFVTAYWNPPTLNGVLMKLSVGQYLAKDKGATIDVAKRFDSGVAVGVWAAISNVSKDDYGEGGFSKGFYISIPFDLMTIGPNRNRAVVSWTPLTRDGGQMLSRKYQLYPMTAEREVPVGQLEHHHHHH | not soluble
19 | MGSDKIHHHHHHMSSLGLIRNLPRSRFVPLVVLHDTDGPVADLFRREGIDFVAAPVLNRLARAAPRNGAAVVNVMRTLPALVRFLRASNASIVHTNDGRTHLIWGLAARVAGAKHLWHHRGDATSFGLRRVAPWLPNRLVAVSKFASPRPGIFSAASKCSVVHSPFDVTKMAGFEREEARNNVLAAIRCAPETKLLGYVGTLVDRKRPILFVEAVAALKRLSPETKVVGLFFGNALNGLDEAAKSRAEALGVADCIHFMGFRYPGEPWIAGLDALLVTAVNEPLGRTLVEAMLLGTPVVAADSGGNPEVVEDGRTGMLVRADDPDEFARACLKLFSDAALRDRIVETARNEVRARFSFERHVHAITSVYEELTGGMAAMQRSARAG | not soluble
20 | MTVSGPGTPEPRPATPGASSVEQLRKEGNELFKCGDYGGALAAYTQALGLDATPQDQAVLHRNRAACHLKLEDYDKAETEASKAIEKDGGDVKALYRRSQALEKLGRLDQAVLDLQRCVSLEPKNKVFQEALRNI | soluble
21 | MSLSKPLYVFDLDDTLIDGDCAMIWNAFLAEKGIATERNFVEEDRRRMALYAQGKMDMAEYIAFAMQPLAQVPSTTVQDWVEECVSRWIVPKQFAQARELIAQLKQQGNTCLIISASVSFLVKTVAQRFGIEHALGIDLVSQNGCYSGNIEGVASYREGKVLRLQQWLAEQNETYHDVHFYTDSINDLPLCQHADFAYVVNPCPRLKAQAEQHGWPILSWAVEGHHHHHH | soluble
